Data taken from patent publication US20200377555A1.

What was measured:
Details in all cases: remark: other sources report otherwise
[1] = biological target: T1, UFV5367 (influenza A H1N1 A/Brisbane/59/07), A8C8J4
[2] = biological target: Full length HA H1N1 A/Brisbane/59/07 (influenza A H1N1 A/Brisbane/59/07), B4URD6
[3] = biological target: T1, UFV5367 (influenza A H1N1 …); remark: listed apart in the source
[4] = biological target: T1, UFV5367 (influenza A H1N1 …); assay: ELISA, polypeptide coated, antibody titrated; average of 3 independent assays
[5] = biological target: UFV180499 H5 A/Hong Kong/156/97 (influenza A H5 A/Hong Kong/156/97)

B1: Fab fragment of mAb CR6261 (Fab, V domains shown)
VH: EVQLVESGAEVKKPGSSVKVSCKASGGPFRSYAISWVRQAPGQGPEWMGGIIPIFGTTKYAPKFQGRVTITADDFAGTVYMELSSLRSEDTAMYYCAKHMGYQVRETMDVWGKGTTVTVSS
VL: QSVLTQPPSVSAAPGQKVTISCSGSSSNIGNDYVSWYQQLPGTAPKLLIYDNNKRPSGIPDRFSGSKSGTSATLGITGLQTGDEANYYCATWDRRPTAYVVFGGGTKLTVLG
- MW polypeptide + Fab6261 (kDa) [1]: 204 kDa

B2: CR6261 (antibody, V domains shown)
VH: EVQLVESGAEVKKPGSSVKVSCKASGGPFRSYAISWVRQAPGQGPEWMGGIIPIFGTTKYAPKFQGRVTITADDFAGTVYMELSSLRSEDTAMYYCAKHMGYQVRETMDVWGKGTTVTVSS
VL: QSVLTQPPSVSAAPGQKVTISCSGSSSNIGNDYVSWYQQLPGTAPKLLIYDNNKRPSGIPDRFSGSKSGTSATLGITGLQTGDEANYYCATWDRRPTAYVVFGGGTKLTVLG
- Kd [2]: 1.1 nM
- Kd [3]: 0.48 nM
- EC50 [4]: 0.417 nM

B3: CR9114 (antibody, V domains shown)
VH: QVQLVQSGAEVKKPGSSVKVSCKSSGGTSNNYAISWVRQAPGQGLDWMGGISPIFGSTAYAQKFQGRVTISADIFSNTAYMELNSLTSEDTAVYFCARHGNYYYYSGMDVWGQGTTVTVSS
VL: SYVLTQPPAVSGTPGQRVTISCSGSDSNIGRRSVNWYQQFPGTAPKLLIYSNDQRPSVVPDRFSGSKSGTSASLAISGLQSEDEAEYYCAAWDDSLKGAVFGGGTQLTVL
- EC50 (read off the curve) [5]: 0.02 µg/mL
